Data reported in patent publication US20170252327A1, “Methods of Modulating Gastrointestinal Tract Flora Levels with Alkaline Phosphatase” (priority 2008, published 2017).
“Also recorded” adds a separate entry of the source.

Legend:
[1] = type: physicochemical; details: 24 h
Procedure: IAP activity was determined following the protocol as described by Baykov et al. (Anal Biochem, 171:266, 1988). Briefly, individual stool samples were homogenized in water (10 mg/100 μl), centrifuged and supernatant was collected. Then 25 μl of the stool supernatant (or aqueous cIAP solution) were mixed with 175 μl phosphatase assay reagent containing 5 mM of p-nitrophenyl phosphate (pNPP) followed by determining optical density at 405 nm after a specific time period when the samples usually turned yellow due to release of p-nitrophenol. Protein concentrations of stool supernatants were measured using a kit from Bio-Rad Laboratories (Hercules, Calif.). The specific activity of the enzyme, expressed as pmole pNPP hydrolyzed per minute per μg of protein, and CFU per gm of stool +/− SEM were determined and the results are shown in FIG. 3. As expected, IAP activity is lower in hypothyroid animals (Weeks 6-32, FIG. 3A) as compared to the euthyroid animals (Week 0, FIG. 3A). […] At Week 32 the IAP activity in hyperthyroid animals was approximately 7-fold higher compared to euthyroid animals and 15-fold higher compared to hypothyroid animals. […] On the other hand the fecal bacterial counts in hyperthyroid animals continued to gradually increase, being the highest at Week 32 when the experiment was terminated (FIGS. 3B, 3C, and 3D). […]

[2] = system: Gram-negative bacteria (mostly E. coli); assay: Restoration of commensal Gram-negative gut flora in streptomycin-treated WT mice with or without cIAP (MacConkey agar); type: in vivo; details: for Number of animals with commensal Gram-negative bacteria / restoration of gut flora, cIAP+ vs cIAP- Group: after streptomycin for three days, cIAP 200 U/ml, p<0.00004
Procedure: Accordingly, experiments were performed in which groups of WT mice (n=10) were treated orally with the antibiotic streptomycin in the presence or absence of cIAP. Streptomycin (5 mg/ml) and cIAP (200 U/ml for cIAP^+ Group, n=5) or ‘vehicle for cIAP’ (20 μl/ml ‘vehicle for cIAP’ (50 mM KCl, 10 mM Tris-HCl (pH 8.2), 1 mM MgCl, 0.1 mM ZnCl2, and 50% glycerol) in drinking water for control cIAP^− Group, n=5) were administered in the animals' drinking water and fecal cultures were performed.
Individual stool samples were cultured each day on MacConkey agar media. […] After discontinuation of antibiotic treatment, the time of appearance (Day) of Gram-negative bacteria (mostly E. coli, occasionally P. mirabilis) in stool samples was recorded for each animal. The experiment was repeated six times, which raised the total number of animals in each group to 39 (n=39), however, duration of each experiment varied (7-35 days). Data was compiled from all six experiments and the number of animals with E. coli in each group on a specific day was recorded.

gut microbiota [3] = assay: Restoration of gut flora after ampicillin treatment with or without cIAP (stool culture in LB media); type: in vivo, mice (C57BL/6)
Procedure: An experiment was performed in which five mice (C57BL/6) of each test group, approximately 6 weeks old, were treated with 1 mg/ml of the antimicrobial drug ampicillin, in the presence or absence of calf intestinal alkaline phosphatase (cIAP) (New England Biolabs, Ipswich, Mass.). Ampicillin was administered orally with the animal's drinking water at a concentration of 1 mg/ml, and 250 units of cIAP were administered twice daily as oral gavage. Individual stool samples of each group were cultured in LB media each day and analyzed for the presence/absence of the gut flora. The gut flora of mice before receiving the antibiotic was considered as a baseline control for normal gastrointestinal tract flora (present in all samples). […] Both treatment groups received ampicillin for 10 days.

[4] = system: streptomycin-resistant E. coli; assay: Survival of gavaged commensal E. coli in IAP-KO mice given oral cIAP; type: in vivo; details: oral supplementation of cIAP
From the text: Two groups of IAP-KO animals (n=6) were put on drinking water containing cIAP or ‘vehicle for cIAP.’ On Day 2, animals were gavaged with 20,000 CFU of streptomycin-resistant E. coli, which is a commensal bacterium isolated from the stool of a WT mouse, and the presence of streptomycin-resistant E. coli in the stools of these animals was closely monitored. As only a few animals carried E. coli in their stools (FIG. 4B), the animals were gavaged with another dose of 50,000 CFU of E. coli on Day 5, however, again only a few animals shed E. coli in their stools. On Day 8, most of the animals of either group carried no E. coli in their stools. Supplementation of cIAP was stopped and the animals were treated with streptomycin for 3 days, which should kill most of the native flora, but would allow proliferation of the surviving streptomycin-resistant E. coli.

[5] = system: streptomycin-resistant S. typhimurium; assay: Growth of Salmonella typhimurium in streptomycin-treated WT mice with or without cIAP; type: in vivo; details: for Growth of pathogenic S. typhimurium: cIAP in the drinking water
Procedure: Restoration or maintenance of the normal gastrointestinal tract flora by IAP was postulated to inhibit infection by pathogenic bacteria because pathogenic bacteria would likely face competition for ‘food and shelter’ (e.g., nutrition, epithelial attachment sites, space, etc.) and antibacterial factors produced by commensal organisms. Accordingly, groups of WT mice (n=5) were treated with streptomycin (5 mg/ml) for 3 days, followed by oral gavage of 500,000 CFU of streptomycin-resistant S. typhimurium in the presence of cIAP (200 U/ml for cIAP^+ Group) or absence of cIAP (20 μl /ml ‘vehicle for cIAP’ (50 mM KCl, 10 mM Tris-HCl (pH 8.2), 1 mM MgCl2, 0.1 mM ZnCl2, and 50% glycerol) in drinking water for control cIAP^− Group). The presence of S. typhimurium was monitored in the stools of these animals by plating stools on Hektoen plates containing streptomycin (100 μg/ml).

[6] = system: streptomycin-resistant E. coli; assay: Colonization of E. coli in antibiotic-treated WT mice supplemented with cIAP; type: in vivo; details: WT mice after streptomycin and ciprofloxacin, p<0.015
Procedure: To determine the temporal effects of IAP on the restoration of commensal gut flora, groups of WT animals (n=6) were treated with streptomycin (5 mg/ml) and ciprofloxacin (0.5 mg/ml) for three days followed by oral gavage of small doses (20,000 CFU) of streptomycin-resistant E. coli for two alternate days (FIG. 4C; Day 0 and Day 2) in the presence or absence of cIAP.

gut microbiota [7] = assay: Restoration of gut flora after streptomycin treatment with or without cIAP (stool culture in LB media); type: in vivo, mice (C57BL/6)
Procedure: To address the role of intestinal alkaline phosphatase on the gastrointestinal tract flora of mammals, an experiment was performed in which five approximately six week old mice (C57BL/6) of each test group were treated with an antimicrobial drug, streptomycin, in the presence or absence of calf intestinal alkaline phosphatase (cIAP) (Sigma, St. Louis, Mo.). Both streptomycin (5 mg/ml) and cIAP (50 units/ml) were administered orally with the animal's drinking water. Individual stool samples of each group were cultured in LB media each day and analyzed for the presence/absence of gut flora. The gastrointestinal tract flora of mice before antibiotic treatment was considered as a baseline control for the normal gut flora (present in all samples).

B1: calf intestinal alkaline phosphatase (protein, UniProt P19111 20-506, looked up)
Intestinal-type alkaline …: LVPVEEEDPAFWNRQAAQALDVAKKLQPIQTAAKNVILFLGDGMGVPTVTATRILKGQMNGKLGPETPLAMDQFPYVALSKTYNVDRQVPDSAGTATAYLCGVKGNYRTIGVSAAARYNQCKTTRGNEVTSVMNRAKKAGKSVGVVTTTRVQHASPAGAYAHTVNRNWYSDADLPADAQMNGCQDIAAQLVNNMDIDVILGGGRKYMFPVGTPDPEYPDDASVNGVRKRKQNLVQAWQAKHQGAQYVWNRTALLQAADDSSVTHLMGLFEPADMKYNVQQDHTKDPTLQEMTEVALRVVSRNPRGFYLFVEGGRIDHGHHDDKAYMALTEAGMFDNAIAKANELTSELDTLILVTADHSHVFSFGGYTLRGTSIFGLAPSKALDSKSYTSILYGNGPGYALGGGSRPDVNDSTSEDPSYQQQAAVPQASETHGGEDVAVFARGPQAHLVHGVEEETFVAHIMAFAGCVEPYTDCNLPAPTTATSIPD
notes: calf intestinal alkaline phosphatase enzyme (Sigma)
- cIAP enzymatic activity remaining [1]: approximately 80%
- Number of animals with commensal Gram-negative bacteria / restoration of gut flora, cIAP+ vs cIAP- Group [2]: much higher
- Number of animals with commensal Gram-negative bacteria / restoration of gut flora, cIAP+ vs cIAP- Group ([2]; listed as IAP): enhances the restoration of antibiotic-associated loss of gut flora
- Day at the end of which all animals showed E. coli in their stools ([2]; cIAP+ Group, after discontinuation of streptomycin): 3 days
- Gut flora of mice receiving only cIAP (gut microbiota [3]; 250 units cIAP twice daily oral gavage, no ampicillin): normal gut flora phenotype; also recorded: did not affect normal gut flora
- Effect of cIAP on time for restoring the normal gut flora (gut microbiota [3]; with ampicillin): significantly reduced the time for restoring the normal gut flora
- Survival of E. coli in IAP-KO mice [4]: can survive
- Survival of E. coli in IAP-KO mice ([4]; listed as IAP): favors survival of E. coli
- Salmonella count, less than in cIAP- Group ([5]; cIAP 200 U/ml in drinking water, p<0.001): approximately 4 log
- Growth of pathogenic S. typhimurium [5]: dramatically inhibited
- Growth of pathogenic S. typhimurium ([5]; listed as IAP): inhibits Salmonella typhimurium infection
- Colonization of E. coli [6]: temporal enhancement of colonization of E. coli
- Colonization of E. coli ([6]; listed as IAP): temporal enhancement of E. coli colonization
- Gut flora of mice receiving only cIAP (gut microbiota [7]; cIAP 50 units/ml in drinking water, no streptomycin): normal gut flora phenotype; also recorded: did not affect normal gut flora
- Effect of cIAP on reestablishment of normal gut flora (gut microbiota [7]; co-administered with streptomycin throughout the treatment period): significantly enhanced the early reestablishment of normal gut flora
